Data set [1] deals with T1, RORα1 (Homo sapiens, UniProt P35398 P35398:1-523).
T1 sequence: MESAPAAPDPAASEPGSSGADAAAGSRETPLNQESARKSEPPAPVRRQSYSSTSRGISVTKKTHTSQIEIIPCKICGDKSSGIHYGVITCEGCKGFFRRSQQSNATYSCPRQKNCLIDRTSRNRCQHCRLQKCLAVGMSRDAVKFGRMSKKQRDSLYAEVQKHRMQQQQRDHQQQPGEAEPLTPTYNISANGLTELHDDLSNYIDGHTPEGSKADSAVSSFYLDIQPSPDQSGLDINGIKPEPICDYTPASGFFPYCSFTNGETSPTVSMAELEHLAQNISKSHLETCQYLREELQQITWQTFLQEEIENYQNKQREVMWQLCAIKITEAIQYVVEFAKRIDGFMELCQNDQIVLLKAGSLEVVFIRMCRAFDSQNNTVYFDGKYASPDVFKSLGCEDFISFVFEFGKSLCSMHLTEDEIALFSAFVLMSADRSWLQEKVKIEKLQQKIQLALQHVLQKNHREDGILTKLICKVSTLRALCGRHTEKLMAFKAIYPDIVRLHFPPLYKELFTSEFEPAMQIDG
Put plainly: competition; unlabelled mutated competitor 1x-100x used as specificity control; full oligo sequence not stated, SEQ 15 matches the ACCTCA mutation. To be noted: tags: TNT-T7 Promega; hRORα1. Here is the method:
(§1) FIG. 6C depicts the gel shift experiments conducted by using the in vitro translated RORαl protein (TNT-T7 Promega) and an IκBα-RORE labelled probe. […] To […] the mobility of the complex, 1 μl of RORα1 antibody was added to the binding reaction (S: shift of the complex; SS: super-shift of the complex; FP: unbound probe).
(§2) It has been shown that the negative dominant RORαΔ235 missing the LBD domain inhibits RORα1-induced transcription by competing with the same DNA binding domain (Mc Broom, L. D. B., Flock, G. and Giguère, V., Mol. Cell. Biol. 1995, 15: 796-808). The effect of this mutant on the promoter under the control of the IκBα gene RORE inducible by RORα1 was tested. Cotransfection with RORαΔ235 abolished the effect of RORα1 (FIG. 6B). […] Finally, binding of RORα1 to its response element RORE was checked by gel shift assays, using in vitro translated RORα1 protein.

The target in data set [2] is T1, RORα1. Put plainly: EMSA; supershift with RORα1 antibody; native competitor 1x-100x; exact probe length not stated. To be noted: tags: TNT-T7 Promega; hRORα1; label: labelled probe. How it is done: as §1, §2
On the technique in general: Mobility shift assays separate free from complexed probe on a gel.

Consider 2 molecules from patent US20050260575, “Method for identifying substances useful for treating inflammation using the response element to the ikbalpha ror receptor” (published 2005).

B1: IκBα-RORE mutant (dsDNA)
DNA 1: GAGCACAATGTACCTCAGATAG
DNA 2: CTATCTGAGGTACATTGTGCTC
Turning to B1, the binding result in the data set with RORα1 [1] was “no binding”.

B2: IκBα-RORE (dsDNA)
DNA 1: GAGCACAATGTAGGTCAGATAG
DNA 2: CTATCTGACCTACATTGTGCTC
With B2, the binding result in the data set with RORα1 [2] is reported as “binds”.
